{"source": "paper PMC4022456", "about": "“Phosphorylation of a WRKY Transcription Factor by MAPKs Is Required for Pollen Development and Function in Arabidopsis”", "binders": {"B1": {"name": "W-box probe (three W boxes) (dsDNA)", "DNA 1": "CGTTGACCGTTGACCGAGTTGACTTTTTA", "DNA 2": "TAAAAAGTCAACTCGGTCAACGGTCAACG"}}, "biological_target": "WRKY34 (WT) (Arabidopsis thaliana, UniProt O65590 1-568)", "sequence (O65590 whole entry)": "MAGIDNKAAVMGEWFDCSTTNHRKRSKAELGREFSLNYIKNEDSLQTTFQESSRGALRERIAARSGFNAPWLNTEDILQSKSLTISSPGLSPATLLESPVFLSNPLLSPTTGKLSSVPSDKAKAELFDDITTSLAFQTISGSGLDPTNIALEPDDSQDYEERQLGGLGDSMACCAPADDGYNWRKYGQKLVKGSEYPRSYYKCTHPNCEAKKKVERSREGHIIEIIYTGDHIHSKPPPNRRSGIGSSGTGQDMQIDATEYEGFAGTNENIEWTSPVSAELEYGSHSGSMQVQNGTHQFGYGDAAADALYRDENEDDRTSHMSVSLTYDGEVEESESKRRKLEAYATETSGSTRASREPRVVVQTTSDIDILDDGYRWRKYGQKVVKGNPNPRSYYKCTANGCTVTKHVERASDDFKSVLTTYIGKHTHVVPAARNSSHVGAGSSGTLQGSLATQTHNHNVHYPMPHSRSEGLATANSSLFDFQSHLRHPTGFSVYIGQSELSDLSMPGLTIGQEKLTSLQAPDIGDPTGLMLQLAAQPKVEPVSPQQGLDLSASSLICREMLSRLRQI", "test": "EMSA; competed by 250-fold unlabeled W-box tested; 20 mM HEPES pH 7.9, 50 mM KCl, 0.5 mM DTT, 0.1 mM EDTA, 0.1 ug/uL herring sperm DNA, room temperature 30 min; 1 ug protein, 2 pmol probe; 5% native PAGE, 0.5x TBE", "conditions": "protein: recombinant; label: 32P 5' end; blunt", "data": [{"binder": "B1", "values": [{"measurement": "binding result", "result": "binds"}]}]}
